Experimental data published in patent US20110236969A1.

T1: human CD30 (commercial), conjugated to digoxigenin (human) (UniProt P28908)
T1 sequence (conjugated to digoxigenin (DIG), looked up): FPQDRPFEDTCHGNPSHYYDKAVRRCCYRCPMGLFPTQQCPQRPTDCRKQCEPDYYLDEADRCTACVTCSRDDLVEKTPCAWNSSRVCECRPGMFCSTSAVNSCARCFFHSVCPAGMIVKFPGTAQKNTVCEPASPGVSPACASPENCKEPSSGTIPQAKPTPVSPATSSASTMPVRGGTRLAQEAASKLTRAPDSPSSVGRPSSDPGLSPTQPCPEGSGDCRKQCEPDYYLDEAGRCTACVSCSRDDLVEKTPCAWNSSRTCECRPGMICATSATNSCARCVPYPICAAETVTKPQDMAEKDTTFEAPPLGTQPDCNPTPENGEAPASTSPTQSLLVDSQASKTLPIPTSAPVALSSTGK


Legend:
[1] = biological target: GST-fused human V158 FcγRIIIa (extracellular region) (human) (UniProt P08637); experiment: SPR, GST-FcγRIIIa V158 on chip
Sequence of GST-fused human V158 FcγRIIIa (extracellular region) (human) (P08637 17-208 F176V): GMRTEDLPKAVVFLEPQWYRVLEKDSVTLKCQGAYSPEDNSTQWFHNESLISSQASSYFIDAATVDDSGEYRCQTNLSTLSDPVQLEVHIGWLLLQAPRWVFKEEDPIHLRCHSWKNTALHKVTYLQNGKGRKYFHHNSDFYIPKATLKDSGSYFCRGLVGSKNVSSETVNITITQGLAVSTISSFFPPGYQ

[2] = biological target: GST-fused human V158 FcγRIIIa (extracellular region) (human) (UniProt P08637); experiment: AlphaScreen competition with biotin-WT AC10
[3] = biological target: T1, human CD30 (commercial), conjugated to digoxigenin (human); experiment: AlphaScreen competition with biotin-WT AC10
[4] = biological target: CD30 fused to the Fc region of IgG1 (R&D Systems) (UniProt P28908); experiment: SPR, CD30-Fc on Protein A chip

Row | Kd [1] [nM] | IC50 [2] [nM] | Fold IC50 relative to WT [3] [fold] | IC50 [3] [nM] | Fold KD relative to WT [1] [fold] | Fold KD relative to WT [4] [fold] | Kd [4] [nM] | Fold IC50 relative to WT [2] [fold] | Molecule
1 | 18.6 | 87.2 |  |  |  |  |  |  | WT AC10 antibody H0L0 (H0 AC10 VH, L0 AC10 VL)
2 | 16.6 | 340 | 0.07 | 45.3 | 1.12 | 0.45 | 7.55 | 0.26 | AC10 H1L2 (H1 AC10 VH, L2 AC10 VL) (antibody, from a related filing, IgG1, V domains shown) VH: QIQLVQSGPEVKKPGASVKVSCKASGYTFTDYYITWVRQAPGQGLEWMGWIYPGSGNTKYNEKFQGRVTITVDTSASTAYMELSSLRSEDTAVYFCANYGNYWFAYWGQGTLVTVSS VL: DIVLTQSPSSLSASVGDRVTITCRASQSVDFDGDSYMNWYQQKPGQPPKVLIYAASNLESGIPARFSGSGSGTDFTLTISSLQPEDFATYYCQQSNEDPWTFGGGTKVEIK
3 | 11.2 | 221 | 0.11 | 27.7 | 1.66 | 0.6 | 5.63 | 0.39 | AC10 H1L1 (H1 AC10 VH, L1 AC10 VL) (antibody, from a related filing, IgG1, V domains shown) VH: QIQLVQSGPEVKKPGASVKVSCKASGYTFTDYYITWVRQAPGQGLEWMGWIYPGSGNTKYNEKFQGRVTITVDTSASTAYMELSSLRSEDTAVYFCANYGNYWFAYWGQGTLVTVSS VL: DIVLTQSPATLSLSPGERATLSCRASQSVDFDGDSYMNWYQQKPGQPPKVLIYAASNLESGIPARFSGSGSGTDFTLTISSLQPEDFATYYCQQSNEDPWTFGGGTKVEIK
4 | 6.13 | 83.5 | 1.59 | 1.99 | 3.03 | 1.45 | 2.33 | 1.04 | AC10 H3L3 (H3 AC10 VH, L3 AC10 VL) (antibody, from a related filing, IgG1, V domains shown) VH: QIQLVQSGPEVKKPGASVKVSCKASGYTFTDYYITWVRQAPGQGLEWMGWIYPGSGNTKYNEKFQGRFVFSVDTSASTAYLQISSLKAEDTAVYFCANYGNYWFAYWGQGTLVTVSS VL: DIVLTQSPDSLAVSLGERATINCKASQSVDFDGDSYMNWYQQKPGQPPKVLIYAASNLESGIPARFSGSGSGTDFTLTINSLEAEDAATYYCQQSNEDPWTFGGGTKVEIK
5 | 14.9 | 751 | 0.06 | 55.1 | 1.25 | 0.36 | 9.49 | 0.12 | AC10 H2L1 (H2 AC10 VH, L1 AC10 VL) (antibody, from a related filing, IgG1, V domains shown) VH: QIQLVESGGGLVKPGGSLRLSCAASGYTFTDYYITWVRQAPGQGLEWMGWIYPGSGNTKYNEKFQGRVTMTVDTSTSTAYMELSSLRSEDTAVYFCANYGNYWFAYWGQGTLVTVSS VL: DIVLTQSPATLSLSPGERATLSCRASQSVDFDGDSYMNWYQQKPGQPPKVLIYAASNLESGIPARFSGSGSGTDFTLTISSLQPEDFATYYCQQSNEDPWTFGGGTKVEIK
6 | 11.2 | 178 | 0.18 | 17.4 | 1.66 | 0.67 | 5.09 | 0.49 | AC10 H1L3 (H1 AC10 VH, L3 AC10 VL) (antibody, from a related filing, IgG1, V domains shown) VH: QIQLVQSGPEVKKPGASVKVSCKASGYTFTDYYITWVRQAPGQGLEWMGWIYPGSGNTKYNEKFQGRVTITVDTSASTAYMELSSLRSEDTAVYFCANYGNYWFAYWGQGTLVTVSS VL: DIVLTQSPDSLAVSLGERATINCKASQSVDFDGDSYMNWYQQKPGQPPKVLIYAASNLESGIPARFSGSGSGTDFTLTINSLEAEDAATYYCQQSNEDPWTFGGGTKVEIK
7 | 4.01 |  |  | 49.2 |  |  | 5.95 |  | AC10 H2L2 (H2 AC10 VH, L2 AC10 VL) (antibody, from a related filing, IgG1, V domains shown) VH: QIQLVESGGGLVKPGGSLRLSCAASGYTFTDYYITWVRQAPGQGLEWMGWIYPGSGNTKYNEKFQGRVTMTVDTSTSTAYMELSSLRSEDTAVYFCANYGNYWFAYWGQGTLVTVSS VL: DIVLTQSPSSLSASVGDRVTITCRASQSVDFDGDSYMNWYQQKPGQPPKVLIYAASNLESGIPARFSGSGSGTDFTLTISSLQPEDFATYYCQQSNEDPWTFGGGTKVEIK
8 | 17.4 | 209 |  | 6.09 |  | 1.39 | 2.44 |  | AC10 H3L1 (H3 AC10 VH, L1 AC10 VL) (antibody, from a related filing, IgG1, V domains shown) VH: QIQLVQSGPEVKKPGASVKVSCKASGYTFTDYYITWVRQAPGQGLEWMGWIYPGSGNTKYNEKFQGRFVFSVDTSASTAYLQISSLKAEDTAVYFCANYGNYWFAYWGQGTLVTVSS VL: DIVLTQSPATLSLSPGERATLSCRASQSVDFDGDSYMNWYQQKPGQPPKVLIYAASNLESGIPARFSGSGSGTDFTLTISSLQPEDFATYYCQQSNEDPWTFGGGTKVEIK
9 | 3.52 | 183 | 0.12 | 27.2 | 5.28 | 0.5 | 6.75 | 0.48 | AC10 H2L3 (H2 AC10 VH, L3 AC10 VL) (antibody, from a related filing, IgG1, V domains shown) VH: QIQLVESGGGLVKPGGSLRLSCAASGYTFTDYYITWVRQAPGQGLEWMGWIYPGSGNTKYNEKFQGRVTMTVDTSTSTAYMELSSLRSEDTAVYFCANYGNYWFAYWGQGTLVTVSS VL: DIVLTQSPDSLAVSLGERATINCKASQSVDFDGDSYMNWYQQKPGQPPKVLIYAASNLESGIPARFSGSGSGTDFTLTINSLEAEDAATYYCQQSNEDPWTFGGGTKVEIK
